Patent US20220380463A1 (Adimab, published 2022)
Values belong to the binder of their own block, whether it stands above or below them.

Columns and labels:
[1] = target: T1, human CD3 on CD3+ Jurkat cells (human, UniProt P07766 23-207); assay: flow cytometry, 100 nM IgG on CD3+ Jurkat cells, pH 6.0
T1 construct: whole, on cells; Native CD3 complex on cells; the other CD3 chains are not specified for this assay; also called Human CD3+ Jurkat
Outline: (§1)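 Jurkat cells incubated 20 min on ice with 100 nM yeast-produced IgG in PBS + 0.1% BSA at pH 6.0 or pH 7.4, with all washes and staining at the same pH. Bound antibody detected with anti-human IgG-RPE, dead cells excluded by propidium iodide; MFI measured by flow cytometry.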

[2] = target: T1, human CD3 on CD3+ Jurkat cells; assay: flow cytometry, 100 nM IgG on CD3+ Jurkat cells, pH 7.4
Outline: as §1

[3] = target: T1, human CD3 on CD3+ Jurkat cells; assay: flow cytometry on CD3+ Jurkat cells, ratio of MFI at pH 6.0 to pH 7.4
Outline: as §1

T1 sequence (P07766 23-207): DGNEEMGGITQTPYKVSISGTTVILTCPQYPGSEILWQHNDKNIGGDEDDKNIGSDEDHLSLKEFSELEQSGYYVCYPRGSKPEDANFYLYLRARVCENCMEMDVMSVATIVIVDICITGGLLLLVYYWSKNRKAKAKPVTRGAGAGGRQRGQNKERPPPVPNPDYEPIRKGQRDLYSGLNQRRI

B4: SAD10319_P01_H01 (ADI-48623) (antibody, V domains shown)
VH: QVQLVQSGAEVKKPGASVKVSCKASGYTFDDYAMHWVRQAPGQRLEWMGWIDAGTGDTKYSQKFQGRVTITRDTSASTAYMELSSLRSEDTAVYYCARDHYHRYFYDVWGQGTLVTVSS
VL: DIVMTQSPDSLAVSLGERATINCKSSQSLLNARTGKNYLAWYQQKPGQPPKLLIYWASTRESGVPDRFSGSGSGTDFTLTISSLQAEDVAVYYCKQSYSRRTFGGGTKVEIK
notes: IgG; also called Ab235
- MFI pH 6.0 [1]: 1760 MFI
- MFI pH 7.4 [2]: 147 MFI
- MFI pH 6.0/MFI pH 7.4 [3]: 12

B5: SAD10319_P01_F02 (ADI-48624) (antibody, V domains shown)
VH: QVQLVQSGAEVKKPGASVKVSCKASGYTFESYDMHWVRQAPGQRLEWMGWIDAGTGNTKYSQKFQGRVTITADESTSTAYMELSSLRSEDTAVYYCARDHYGHYFYDVWGQGTLVTVSS
VL: DIVMTQSPDSLAVSLGERATINCKSSQSLLNARTGKNYLAWYQQKPGQPPKLLIYWASTRESGVPDRFSGSGSGTDFTLTISSLQAEDVAVYYCKQSYSRRTFGGGTKVEIK
notes: IgG; also called Ab241
- MFI pH 6.0 [1]: 895 MFI
- MFI pH 7.4 [2]: 58 MFI
- MFI pH 6.0/MFI pH 7.4 [3]: 15.4

B7: SAD10319_P01_C03 (ADI-48626) (antibody, V domains shown)
VH: QVQLVQSGAEVKKPGASVKVSCKASGYTFTDYDMHWVRQAPGQRLEWMGWIDPYTGATKYSQKFQGRVTITRDTSASTAYMELSSLRSEDTAVYYCARDAYGHYFYDVWGQGTLVTVSS
VL: DIVMTQSPDSLAVSLGERATINCKSSQSLLNARTGKNYLAWYQQKPGQPPKLLIYWASTRESGVPDRFSGSGSGTDFTLTISSLQAEDVAVYYCKQSYSRRTFGGGTKVEIK
notes: IgG; also called Ab244
- MFI pH 6.0 [1]: 3160 MFI
- MFI pH 7.4 [2]: 369 MFI
- MFI pH 6.0/MFI pH 7.4 [3]: 8.6

Now from value to binder:

- MFI pH 6.0 [1]: 123 MFI
- MFI pH 7.4 [2]: 47 MFI
- MFI pH 6.0/MFI pH 7.4 [3]: 2.6
B1: SAD10318_P03_E09 (ADI-48611) (antibody, V domains shown)
VH: QVQLVQSGAEVKKPGASVKVSCKASGFNIKDYYMHWVRQAPGQRLEWMGWIDLENANTIYDAKFQGRVTITRDTSASTAYMELSSLRSEDTAVYYCARDAYGHYHYDVWGQGTLVTVS
VL: DIVMTQSPDSLAVSLGERATINCKSSQSLLNARTGHNHLAWYQQKPGQPPKLLIYWASTRESGVPDRFSGSGSGTDFTLTISSLQAEDVAVYYCKQSYHHRTFGGGTKVEIK
notes: IgG; also called Ab207

- MFI pH 6.0 [1]: 1750 MFI
- MFI pH 7.4 [2]: 129 MFI
- MFI pH 6.0/MFI pH 7.4 [3]: 13.5
B2: SAD10319_P01_A01 (ADI-48619) (antibody, V domains shown)
VH: QVQLVQSGAEVKKPGASVKVSCKASGYTFASYAMHWVRQAPGQRLEWMGWINPDTGNTVYSQKFQGRVTITRDTSASTAYMELSSLRSEDTAVYYCARDAYHHYFYDVWGQGTLVTVSS
VL: DIVMTQSPDSLAVSLGERATINCKSSQSLLNARTGKNYLAWYQQKPGQPPKLLIYWASTRESGVPDRFSGSGSGTDFTLTISSLQAEDVAVYYCKQSYSRRTFGGGTKVEIK
notes: IgG; also called Ab229

- MFI pH 6.0 [1]: 731 MFI
- MFI pH 7.4 [2]: 49 MFI
- MFI pH 6.0/MFI pH 7.4 [3]: 14.8
B3: SAD10319_P01_C01 (ADI-48621) (antibody, V domains shown)
VH: QVQLVQSGAEVKKPGASVKVSCKASGYTFTDYDMHWVRQAPGQRLEWMGWIDAGTGLTKYSQKFQGRVTITRDTSASTAYMELSSLRSEDTAVYYCARDHYGHYFYDVWGQGTLVTVSS
VL: DIVMTQSPDSLAVSLGERATINCKSSQSLLNARTGKNYLAWYQQKPGQPPKLLIYWASTRESGVPDRFSGSGSGTDFTLTISSLQAEDVAVYYCKQSYSRRTFGGGTKVEIK
notes: IgG; also called Ab230

- MFI pH 6.0 [1]: 1730 MFI
- MFI pH 7.4 [2]: 128 MFI
- MFI pH 6.0/MFI pH 7.4 [3]: 13.6
B6: SAD10319_P01_H02 (ADI-48625) (antibody, V domains shown)
VH: QVQLVQSGAEVKKPGASVKVSCKASGYTFTDYAMHWVRQAPGQRLEWMGWINPSTGATVYSQKFQGRVTITRDTSASTAYMELSSLRSEDTAVYYCARDAYHHYFYDVWGQGTLVTVSS
VL: DIVMTQSPDSLAVSLGERATINCKSSQSLLNARTGKNYLAWYQQKPGQPPKLLIYWASTRESGVPDRFSGSGSGTDFTLTISSLQAEDVAVYYCKQSYSRRTFGGGTKVEIK
notes: IgG; also called Ab242
